B1: C. elegans APE-1 (sole ASPP homolog), endogenous, tagged with GFP and 3xflag [C. elegans] / C. elegans GSP-2 (PP1 homolog), endogenously HaloTagged [modified: JF646 dye on the HaloTag (single-molecule assay); JFX646 dye on the … (parent)
chain 1: MVTTSSGGGIGYPANNGVTQVSLIHSSDSVRTVSTAPIYRPTSSMASTMAHKSSTAPFISANQRMSKPPVRVVAQPPPPHPQALSQQYHQQNPMMMYSAPNTRPHVIPTMQVQPTMAAQIKRNNPVNAQFQNPSEMIADYGVKPQSVEMVQRVRAVRRQVADEETELRRLRELEHETAQLQNKNYGRERELNVQGSMLKEAQLELRNASMRAQSLNKHLEEMYRRRQTAAAAALVEQRKMQQHQILLARAANQVSTQEVIRPRASVEPFQVNNTQQQQPSPQMMKSEEFSEKRDLNGQTGSYDAIDGSGDHQKIPTEPSYLAPCKENQQKYSELSKMASTDPHSNHSSPSTSSQKAPTLITFSPPSFEQKINSSTMTRDSPFVERPTSFGDSLDESRLRSGKTDLVSLRSDSLKATKRRSWAASEGTSMSEAEMIHRLLDEQRRGRSHFIPQLPTSQEEPSAITSETYAEEVVNSESKQVATSSDSTNNLELPTEQMVLGSDTTTEEDASSCSTRSDDGQNLEMEVAIERRTVKGILRRPNEKMNKGRIEFDPLALLLDAALEGELDLVRSSASKLTDVSQANDEGITALHNAICAGHYEIVRFLIENDADVNAQDSDGWTPLHCAASCNNLPMVRQLVEGGGCVLASTLSDMETPVEKCEEDEDGYDGCLKYLSAAHNSTGSINTGKVYAAYGYEAAFEDELSFDAGDELTVIEKDKVDKNWWTCEKNNGEKGQVPRTYLALYPSLKYRKKLNFVMFDLPLESNNNVE
chain 2: MDVEKLNLDNIISRLLEVRGSKPGKNVQLTESEIKGLCQKSREIFLSQPILLELEAPLKICGDVHGQYYDLLRLFEYGGFPPESNYLFLGDYVDRGKQSLETICLLLAYKIKYPENFFLLRGNHECASINRIYGFYDECKRRYNIKLWKTFTDCFNCLPVAAIIDEKIFCCHGGLSPDLQSMEQIRRIMRPTDVPDQGLLCDLLWSDPDKDVTGWGENDRGVSFTFGPEVVAKFLHKHDLDLICRAHQVVEDGYEFFAKRQLVTLFSAPNYCGEFDNAGSMMTVDETLMCSFQILKPADKKKYPYGAGGVGSNRPVTPPRNAPAAQPKKGAKK

Experiments:
[1] = variants of: B1; experiment: single-molecule photobleaching analysis by TIRF microscopy; details: with C. elegans GSP-2 (PP1 homolog)
[2] = variants of: B1; experiment: MudPIT analysis of 3xflag immunoprecipitations from whole-worm lysates; details: with C. elegans GSP-2 (PP1 homolog) in whole-worm lysates of the MudPIT experiment [C. elegans (endogenous in whole worms)]; for response (% of total protein): parent: 10.8; for screen value: parent: 20

| Variant | screen value ([1]; p = 0.008 vs APE-1, read off a plot) | response (% of total protein) ([2]; bait recovered in same sample: 0.22 % of total protein (wild-type bait 0.54)) | screen value [2] | screen value ([1]; p=0.531 vs APE-1, read off a plot) | response (% of total protein) ([2]; bait recovered in same sample: 0.12 % of total protein (wild-type bait 0.54)) |
| --- | --- | --- | --- | --- | --- |
| chain 1 N583K | 34% | 0.87 | 4 |  |  |
| chain 1 H591Y |  |  | 7 | 37% | 0.87 |

Source: article PMC12543280
